Assay [1] concerns the target T1, human IGSF11 (VSIG3) on cells (human, UniProt Q5DX21 23-431).
T1 sequence: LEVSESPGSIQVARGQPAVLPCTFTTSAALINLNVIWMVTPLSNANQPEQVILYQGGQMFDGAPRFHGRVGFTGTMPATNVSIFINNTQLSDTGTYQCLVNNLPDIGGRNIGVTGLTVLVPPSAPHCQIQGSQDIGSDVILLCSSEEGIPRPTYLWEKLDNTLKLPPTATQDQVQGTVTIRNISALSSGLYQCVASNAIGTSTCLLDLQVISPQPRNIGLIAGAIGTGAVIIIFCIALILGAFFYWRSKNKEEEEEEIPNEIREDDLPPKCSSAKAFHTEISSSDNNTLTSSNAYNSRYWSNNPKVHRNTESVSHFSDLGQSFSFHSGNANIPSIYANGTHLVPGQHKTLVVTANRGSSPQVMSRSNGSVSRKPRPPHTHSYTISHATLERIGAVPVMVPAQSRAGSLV
The experiment in a line: FACS, IgG1-format antibodies; DMS 273 cells (D) treated with IGSF11 siRNA (KD). For orientation: In flow cytometry, cells or beads pass a laser one at a time.

The target in assay [2] is T1, human IGSF11 (VSIG3) on cells. The assay can be described thus: FACS, HEK cells expressing IGSF11.
Assay [3] shares this target. The experiment in a line: FACS, IgG1-format antibodies; CL-11 cells (C), a line that does not express IGSF11 (specificity control), scrambled control siRNA (SC).
Assay [4] addresses T2, recombinant human IGSF11 (VSIG3) extracellular domain (ECD) (human, UniProt Q5DX21 23-241, biotinylated where captured on streptavidin).
T2 construct: also called biotinylated recombinant ECD-IGSF11; IGSF11 (ECD domain)
T2 sequence: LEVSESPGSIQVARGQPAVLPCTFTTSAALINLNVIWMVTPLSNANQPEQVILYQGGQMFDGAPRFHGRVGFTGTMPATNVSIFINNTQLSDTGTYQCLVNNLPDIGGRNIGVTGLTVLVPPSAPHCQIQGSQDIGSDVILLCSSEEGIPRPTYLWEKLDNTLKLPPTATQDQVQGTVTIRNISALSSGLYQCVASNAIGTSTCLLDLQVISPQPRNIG
The assay can be described thus: BLI, IgG1. On the technique in general: In BLI a coated tip is dipped into the sample, and binding shifts an interference pattern.

The target in assay [5] is T1, human IGSF11 (VSIG3) on cells. The assay can be described thus: FACS, IgG1-format antibodies; M579-A2-luc cells (M) treated with IGSF11 siRNA (KD).
Assay [6] has the same target. The experiment in a line: FACS, IgG1-format antibodies; M579-A2-luc cells (M) treated with scrambled control siRNA (SC).
For assay [7], the target named is T3, His-tagged extracellular domain (ECD) of human IGSF11 (VSIG3) (human, UniProt Q5DX21 23-241).
T3 construct: partly bought (SinoBiological 13094-H08H); also called IGSF11-HIS; HIS-IGSF11; not shown: HIS6 tag
T3 sequence: T2 sequence
The experiment in a line: ELISA: IgG1-format antibody titrated on coated His-tagged IGSF11; x axis nM IgG, y axis absorbance per legend. In general terms: An ELISA detects its analyte on a solid surface through an enzyme-linked reagent.

The target of assay [8] is T1, human IGSF11 (VSIG3) on cells. The experiment in a line: FACS, IgG1-format antibodies; CL-11 cells (C), a line that does not express IGSF11 (specificity control), IGSF11 siRNA (KD).
Assay [9] has the same target. The assay can be described thus: FACS, DMS 273 cells.
The target of assay [10] is T2, recombinant human IGSF11 (VSIG3) …. The assay can be described thus: SPR, IgG1.
Assay [11] has as its target T1, human IGSF11 (VSIG3) on cells. The experiment in a line: FACS, IgG1-format antibodies; DMS 273 cells (D) treated with scrambled control siRNA (SC).
The target in assay [12] is T3, His-tagged extracellular domain (ECD) …. The assay can be described thus: blocking ELISA: antibody pre-incubated with His-tagged IGSF11 ECD, complexes added to immobilised VSIR-Fc; y axis % remaining IGSF11 binding to VSIR, x axis nM IgG per legend.
Assay [13] has the same target. The experiment in a line: ELISA EC50 grade, IgG1.
Assay [14] shares this target. The assay can be described thus: blocking ELISA: antibody pre-incubated with His-tagged IGSF11 ECD, complexes added to immobilised VSIR-Fc; y axis % remaining IGSF11 binding to VSIR, x axis nM IgG per legend. The source holds these as a separate data set.
For assay [15] the target is unchanged. The assay can be described thus: ELISA: IgG1-format antibody titrated on coated His-tagged IGSF11; x axis nM IgG, y axis absorbance per legend. This is another data set of the same source.
Assay [16] shares this target. The experiment in a line: blocking ELISA: antibody pre-incubated with His-tagged IGSF11 ECD, complexes added to immobilised VSIR-Fc; y axis % remaining IGSF11 binding to VSIR, x axis nM IgG per legend. The source holds these as a separate data set.
The target is the same in assay [17]. The assay can be described thus: ELISA: IgG1-format antibody titrated on coated His-tagged IGSF11; x axis nM IgG, y axis absorbance per legend. This is another data set of the same source.
Assay [18] addresses T4, IgC2 domain of human IGSF11 fused to murine IgG2a Fc-region (human; mouse, UniProt Q5DX21 137-241).
T4 construct: also called IgC2-like domain mFc fusion; not shown: murine IgG2a Fc-region
T4 sequence: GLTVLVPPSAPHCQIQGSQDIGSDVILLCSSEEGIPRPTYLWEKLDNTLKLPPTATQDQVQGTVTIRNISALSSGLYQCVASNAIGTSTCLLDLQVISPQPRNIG
The experiment in a line: ELISA, IgG.

Assay [19] concerns the target T5, IGSF11 ECD fused to murine-Fc (human; mouse, UniProt Q5DX21 23-241).
T5 construct: also called Fc-fusion IGSF11 ECD; full-length ECD of IGSF11; not shown: murine Fc
T5 sequence: T2 sequence
The experiment in a line: ELISA, IgG.

Assay [20] addresses T6, murine IGSF11 on cells (mouse, UniProt P0C673 23-428).
T6 construct: UniProt P0C673; also called MC38-IGSF11 (murine); CT26-IGSF11 (murine)
T6 sequence: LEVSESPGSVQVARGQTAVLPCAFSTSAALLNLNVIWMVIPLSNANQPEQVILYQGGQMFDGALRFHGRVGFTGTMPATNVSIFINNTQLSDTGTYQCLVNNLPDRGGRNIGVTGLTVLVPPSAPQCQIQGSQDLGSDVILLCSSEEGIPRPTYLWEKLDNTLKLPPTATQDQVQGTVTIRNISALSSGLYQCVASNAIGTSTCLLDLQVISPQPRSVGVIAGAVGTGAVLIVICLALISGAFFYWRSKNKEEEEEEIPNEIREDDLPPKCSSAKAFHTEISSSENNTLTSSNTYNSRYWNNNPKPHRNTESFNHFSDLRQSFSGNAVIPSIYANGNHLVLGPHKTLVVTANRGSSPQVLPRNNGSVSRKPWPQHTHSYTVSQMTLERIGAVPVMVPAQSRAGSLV
The assay can be described thus: FACS, MC38-IGSF11 cells, IgG.
Excerpt: (§1) Unbound antibodies were removed by washing the cells three time with FACS buffer. Bound antibodies were detected with a mouse anti-human IgG antibody conjugated with AlexaFluor647.

Assay [21] addresses T2, recombinant human IGSF11 (VSIG3) …. The experiment in a line: BLI, apparent affinity, IgG captured, IGSF11 ECD 100 nM.
Excerpt: Briefly, various APBs were loaded on an optical biosensor via a commercially available Capture System (AHC sensors, ForteBio).
Assay [22] addresses T1, human IGSF11 (VSIG3) on cells. The experiment in a line: FACS, MDA-MB-231-IGSF11 cells, IgG.
Excerpt: as §1
Assay [23] addresses T6, murine IGSF11 on cells. The experiment in a line: FACS, CT26-IGSF11 cells, IgG.
Excerpt: as §1

Where a chain is given by its changes, count along the chain named. Like-named read-outs stand apart in the source and are kept apart here. Where only a bound is given, the exact number is not on record here.

B1: A-012 (IgG1 format) (antibody, V domains shown)
VH: EVQLLESGGGLIQPGGSLRLSCAVSGFTVSSNYMSWVRQAPGKGLEWVSVIYSGGSTYYADSVKGRFTISRDNSKNTLYLQMNSLRAEDTAVYYCARGNPYYYGDLQVNFDYWGQGTLVTVSS
VL: QAVVTQEPSLTVSPGGTVTLTCASSTGAVTSGYYPNWFQQKPGQAPRALIYSTSNKHSWTPARFSGSLLGGKAALTLSGVQPEDEAEYYCLLYYGGAWVFGGGTKLTVL
notes: human IgG1 format
In the case of B1, the “percentage binding (FACS heat-map)” value in assay [1] was determined as 4.77%; in assay [3], 5.11%; in [5], 2.35%; in assay [6], 65.4%; in assay [8], 3.93%; in [11], 75.8%. In addition, the EC50 is 10 to 50 nM in [2], 10 to 50 nM in [9] and 0.02 to 0.05 nM in assay [13]. The results for the Kd in assay [4] and in assay [10] were 1 to 10 nM and 250 to 500 nM, respectively. The “EC50 (read off the curve)” value in [7] was around 0.007 nM. Also, in [12], the “IC50 (read off the curve)” value is around 2 nM.

B2: B-007 (chain-swapped IgG1) (antibody, V domains shown)
VH: B1 VH with L5V, V24A
VL: B1 VL with G32A, E87D
notes: human IgG1 format; also called B7
For B2, the “IC50 (read off the curve)” value in assay [14] was around 3 nM. In addition, in assay [15], the concentration for a half-maximal effect (EC50 (read off the curve)) is around 0.01 nM.

B3: B-005 (chain-swapped IgG1) (antibody, V domains shown)
VH: B1 VH
VL: B1 VL with L20P, A23G, Y33N, Y34L, F64I
notes: human IgG1 format; also called B5
Take B3: the “EC50 (read off the curve)” value in assay [7] was around 0.01 nM. Also, the “IC50 (read off the curve)” value in assay [12] was around 2 nM.

B4: B-003 (chain-swapped IgG1) (antibody, V domains shown)
VH: B1 VH
VL: B1 VL with G16E, K41R, H57D
notes: human IgG1 format; also called B3
With B4, the “EC50 (read off the curve)” value in assay [7] is around 0.008 nM. In addition, the “IC50 (read off the curve)” value in assay [12] is around 2 nM.

B5: B-004 (chain-swapped IgG1) (antibody, V domains shown)
VH: B1 VH
VL: B1 VL with A48P, E83D, A97D
notes: human IgG1 format; also called B4
Consider B5, for which the “IC50 (read off the curve)” value in assay [16] is around 5 nM. In [17], the “EC50 (read off the curve)” value was around 0.02 nM.

B6: C-011 (IgG1 format) (antibody, V domains shown)
VH: QVQLVQSGAEVKKPGSSVKVSCKASGGTFSSYAISWVRQAPGQGLEWMGGIIPIFGTANYAQKFQGRVTITADESTSTAYMELSSLRSEDTAVYYCARHSTPSFLQYWGQGTLVTVSS
VL: SYELTQPPSVSVSPGQTASITCSGDKLGDKYASWYQQKPGQSPVLVIYQDSKRPSGIPERFSGSNSGNTATLTISGTQAEDEADYYCAVYPAHASARWVFGGGTKLTVL
notes: wildtype human IgG1 and kappa or lambda constant regions
With B6, the EC50 in [18] and in assay [19] was below 1 nM each time.

B7: C-014 (IgG1 format) (antibody, V domains shown)
VH: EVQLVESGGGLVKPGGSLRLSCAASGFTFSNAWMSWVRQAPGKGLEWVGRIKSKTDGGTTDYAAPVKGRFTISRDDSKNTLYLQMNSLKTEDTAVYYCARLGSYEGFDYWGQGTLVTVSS
VL: SYELTQPPSVSVSPGQTASITCSGDKLGDKYASWYQQKPGQSPVLVIYQDSKRPSGIPERFSGSNSGNTATLTISGTQAEDEADYYCSTYTVTSSVVVFGGGTKLTVL
notes: as for B6
In the case of B7, the EC50 is below 1 nM in assay [18] and 1 to 20 nM in assay [19].

B8: C-003 (IgG1 format) (antibody, V domains shown)
VH: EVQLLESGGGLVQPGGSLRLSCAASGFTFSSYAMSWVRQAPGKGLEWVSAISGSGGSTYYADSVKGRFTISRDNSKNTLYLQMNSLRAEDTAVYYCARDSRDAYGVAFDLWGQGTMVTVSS
VL: ASVLTQPPSVSAAPGQKVTISCSGSSSNIGNNYVSWYQQLPGTAPKLLIYDNNKRPSGIPDRFSGSKSGTSATLGITGLQAEDEADYYCLSYTSSQYVFGGGTKLTVL
notes: as for B6
In the case of B8, the EC50 in the assay with murine IGSF11 on cells [20] was below 20 nM; in assay [22] it was 10 to 15 nM; with murine IGSF11 on cells [23] it was below 20 nM; in assay [18] it was below 1 nM; in [19] it was below 1 nM. Moreover, the Kd in assay [21] was below 15 nM.

Usually EC50 stands for the midpoint of the concentration-response curve. One may read the EC50 (read off the curve) as the midpoint of the concentration-response curve.
